Assay results from patent publication US20200338203A1 (Bicycle, published 2020).
Numbered stars: 1 amine (or outer) side, 2 acyl side, 3 side chain; on linkers, the order of the positions; unused ones are H or OH. Bridge positions count the residues as written; N and C are the ends. Square brackets hold non-standard residues; d marks the D form. Ends that are not written are not given here. 1Nal = N[C@@H](Cc1cccc2ccccc12)C(=O)O; TBMB = c1c(C[*:1])cc(C[*:3])cc1C[*:2]; hArg = N=C(N)NCCCC[C@H](N)C(=O)O; Tle = CC(C)(C)[C@H](N)C(=O)O; Aib = CC(C)(N)C(=O)O; azaGly = NNC(=O)O; βAla = NCCC(=O)O; Sar = CNCC(=O)O

Assays:
[1] = target: T1, Human EphA2 (Ecto) (Human, UniProt P29317 24-537); experiment: FP competition; competitor Compound 18
T1 construct: extracellular domain
T1 sequence (P29317 24-537): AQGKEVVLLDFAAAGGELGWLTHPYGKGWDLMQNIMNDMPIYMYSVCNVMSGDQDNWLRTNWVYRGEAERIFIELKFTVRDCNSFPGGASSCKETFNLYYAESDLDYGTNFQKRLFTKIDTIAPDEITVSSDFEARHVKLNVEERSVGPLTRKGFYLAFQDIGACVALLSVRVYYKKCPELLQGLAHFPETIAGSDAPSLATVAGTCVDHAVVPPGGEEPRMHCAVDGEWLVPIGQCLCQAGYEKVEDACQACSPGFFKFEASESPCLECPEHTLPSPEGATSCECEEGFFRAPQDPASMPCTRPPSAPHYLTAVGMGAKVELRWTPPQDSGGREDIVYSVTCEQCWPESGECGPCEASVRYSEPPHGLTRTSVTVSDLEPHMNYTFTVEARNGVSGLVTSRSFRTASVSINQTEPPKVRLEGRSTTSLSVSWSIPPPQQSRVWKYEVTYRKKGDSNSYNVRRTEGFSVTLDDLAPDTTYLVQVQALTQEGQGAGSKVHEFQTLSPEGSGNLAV
Experimental: (§1) Peptides without a fluorescent tag were tested in competition with a peptide with a fluorescent tag and a known Kd (Table 2). Peptides were diluted to an appropriate concentration in assay buffer as described in the direct binding assay with a maximum of 5% DMSO, then serially diluted 1 in 2. Five μL of diluted peptide was added to the plate followed by 10 μL of human or mouse EphA2 (Table 1) at a fixed concentration which was dependent on the fluorescent peptide used (Table 2), then 10 μL fluorescent peptide added. Measurements were conducted as for the direct binding assay, however the gain was determined prior to the first measurement.

[2] = target: T1, Human EphA2 (Ecto); experiment: FP competition; competitor Compound 66
Experimental: as §1

Binder	Ki [1] [nM]	Ki [2] [nM]
[βAla][Sar][Sar][Sar][Sar][Sar][Sar][Sar][Sar][Sar][Sar]H[dD]VPCP[1Nal]G[Aib]F[1Nal]CP[Tle]NRPGC (linker 16-23-30 via TBMB) [Compound 252]	0.37	–
[Sar][Sar]ACPWGPF[1Nal]CPV[dA]RPGC (linker 4-11-18 via TBMB) [Compound 117]	53	75
ACMNDWLCSLGWTCA (linker 2-8-14 via TBMB) [Compound 24]	–	82.3
ACMNDWLCQLGWTCA (linker 2-8-14 via TBMB) [Compound 30]	–	56
AGEMACPWGPFWCPVNRPGCA (linker 6-13-20 via TBMB) [Compound 53]	12.3	–
Ac-[Sar][Sar]A[dH]DVPCP[1Nal]GPFWCP[Tle]N[hArg]PGC (linker 8-15-22 via TBMB) [Compound 230]	1.8	–
[βAla][Sar][Sar][Sar][Sar][Sar][Sar][Sar][Sar][Sar][Sar]H[dD]VPCPWGPFWCPVNRPGC (linker 16-23-30 via TBMB) [Compound 226]	0.84	–
Ac-[Sar][Sar]H[dD]VPCPWG[Aib]FWCP[Tle]NR[Aib]GC (linker 7-14-21 via TBMB) [Compound 270]	1.52	–
[Sar][Sar]ACPWGPFWCPVNR[Aib]GC (linker 4-11-18 via TBMB) [Compound 110]	75	140
[Sar][Sar]ACP[1Nal]GPFWCPVNRP[dA]C (linker 4-11-18 via TBMB) [Compound 116]	2.95	3.2
Ac-[Sar][Sar]A[dD]DVTCP[1Nal]GPF[1Nal]CPVNRPGC (linker 8-15-22 via TBMB) [Compound 283]	0.28	–
[Sar][Sar]AC[Aib][1Nal]GPFWCPVNRPGC (linker 4-11-18 via TBMB) [Compound 113]	10	6.6
Ac-[Sar][Sar]A[dH]DVPCPWGPFWCP[hArg]NRPGC (linker 8-15-22 via TBMB) [Compound 229]	5.1	–
Ac-[Sar][Sar]H[dD]VPCP[1Nal]G[Aib]FWCPVNR[Aib]GC (linker 7-14-21 via TBMB) [Compound 266]	1.6	–
ACPWGPAWCPVRDTNCA (linker 2-9-16 via TBMB) [Compound 42]	–	316
Ac-[Sar][Sar]H[dD]VPCPWG[Aib]F[1Nal]CPVNR[Aib]GC (linker 7-14-21 via TBMB) [Compound 268]	1.24	–
[Sar][Sar]ACP[1Nal]GPFWCPVN[hArg]PGC (linker 4-11-18 via TBMB) [Compound 122]	9.55	8
Ac-[Sar][Sar]H[dD]VPCPW[azaGly]PFWCPVNRPGC (linker 7-14-21 via TBMB) [Compound 267]	0.66	–
Ac-[Sar][Sar]A[dH]DVPCPWG[Aib]FWCP[Tle]NR[Aib]GC (linker 8-15-22 via TBMB) [Compound 233]	4.8	–
[Sar][Sar]ACP[1Nal]GPFWCPV[dA]RPGC (linker 4-11-18 via TBMB) [Compound 115]	12.5	1.64
[Sar][Sar]AC[Aib][1Nal]GPFWCPVNRP[dA]C (linker 4-11-18 via TBMB) [Compound 125]	6.4	0.61
ACRVSPEYCPFGPVWCAGAAA (linker 2-9-16 via TBMB) [Compound 34]	–	77.4
Ac-[Sar][Sar]A[dD]DVTCP[1Nal]G[Aib]FWCP[Tle]N[hArg]PGC (linker 8-15-22 via TBMB) [Compound 284]	3.8	–

Binder	Ki [1] [nM]	Ki [2] [nM]
[Sar][Sar]ACPWGPFWCPVNR[dA]GC (linker 4-11-18 via TBMB) [Compound 105]	–	471
Ac-[Sar][Sar]H[dD]VPCP[1Nal]G[Aib]F[1Nal]CPVNR[Aib]GC (linker 7-14-21 via TBMB) [Compound 261]	0.63	–
AHDVPCPWGPFWCPVNRPGCA (linker 6-13-20 via TBMB) [Compound 59]	0.54	–
ARDDPCPWGPFWCPVNRPGCA (linker 6-13-20 via TBMB) [Compound 62]	–	28
[Sar][Sar]ACPWGPF[1Nal]CPVNRPGC (linker 4-11-18 via TBMB) [Compound 96]	31.3	68.1
[Sar][Sar]ACPWGPAWCPVNRPGC (linker 4-11-18 via TBMB) [Compound 83]	199	288
[Sar][Sar]ACPWGPFWCPVNRAGC (linker 4-11-18 via TBMB) [Compound 104]	124	194
ACPWGPFWCPVARPGC (printed: Sar2-ACPWGPFWCPVARPGC; TBMB on the 3 Cys) [Compound 101]	293	265
[Sar][Sar]ACPWGPFWCPVNRPAC (linker 4-11-18 via TBMB) [Compound 111]	108	238
[Sar][Sar]ACPWGPYWCPVNRPGC (linker 4-11-18 via TBMB) [Compound 91]	–	138
ACPWGPMWCPVNRPGCA (linker 2-9-16 via TBMB) [Compound 46]	–	95.8
ACPWGPFWCPVNRPGCA (linker 2-9-16 via TBMB) [Compound 69]	107	70.1
[Sar][Sar]ACP[1Nal]GPFWCP[Tle]NRPGC (linker 4-11-18 via TBMB) [Compound 121]	3.65	2
[βAla][Sar][Sar][Sar][Sar][Sar][Sar][Sar][Sar][Sar][Sar]H[dD]VPCPWGP[hArg]WCP[Tle]N[hArg]P[dD]C (linker 16-23-30 via TBMB) [Compound 272]	3.99	–
[Sar][Sar]ACPWG[Aib]F[1Nal]CPVNRPGC (linker 4-11-18 via TBMB) [Compound 123]	63	46
Ac-[Sar][Sar]AH[dD]VPCP[1Nal]GPFWCP[Tle]N[hArg]PGC (linker 8-15-22 via TBMB) [Compound 227]	0.75	–
[Sar][Sar]ACP[1Nal]GPF[1Nal]CPVNRPGC (linker 4-11-18 via TBMB) [Compound 120]	1.4	0.98
[βAla][Sar][Sar][Sar][Sar][Sar][Sar][Sar][Sar][Sar][Sar]H[dD]VPCPWG[Aib]FWCP[Tle]N[hArg]P[dD]C (linker 16-23-30 via TBMB) [Compound 271]	3.66	–
Ac-[Sar][Sar]A[dD]DVTCP[1Nal]GPFWCPVNRPGC (linker 8-15-22 via TBMB) [Compound 282]	0.87	–
ACRVSPEYCPFGPVWCA (linker 2-9-16 via TBMB) [Compound 33]	–	78.5
ACRVSPEYCPFGPYWCA (linker 2-9-16 via TBMB) [Compound 38]	–	26.5
ACRVSPEYCPFGPSWCA (linker 2-9-16 via TBMB) [Compound 36]	–	40.5
ACRVSPEYCPFGPEWCA (linker 2-9-16 via TBMB) [Compound 37]	–	61.2
